Results published in patent US5726291, “Amylase inhibitors” (Nisshin Flour Milling Co., Ltd., dated 1998).

T1: human pancreatic α-amylase (human, UniProt P04746)
T1 sequence: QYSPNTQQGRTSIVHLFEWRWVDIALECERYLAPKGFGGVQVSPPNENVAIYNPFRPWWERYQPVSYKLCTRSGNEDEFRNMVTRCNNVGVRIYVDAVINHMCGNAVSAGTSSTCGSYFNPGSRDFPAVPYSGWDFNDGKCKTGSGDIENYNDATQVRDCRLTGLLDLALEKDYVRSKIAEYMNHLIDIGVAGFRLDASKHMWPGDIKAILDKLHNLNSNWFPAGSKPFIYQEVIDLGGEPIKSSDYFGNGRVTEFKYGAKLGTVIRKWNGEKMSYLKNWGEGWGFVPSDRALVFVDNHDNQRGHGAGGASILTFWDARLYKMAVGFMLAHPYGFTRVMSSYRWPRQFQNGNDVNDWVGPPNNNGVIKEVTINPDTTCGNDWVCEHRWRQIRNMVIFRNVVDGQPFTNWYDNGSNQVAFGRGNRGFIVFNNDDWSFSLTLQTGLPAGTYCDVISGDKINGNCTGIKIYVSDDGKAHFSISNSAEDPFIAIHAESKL

B1: Protein 0.19 AI (other)
chain: SGPWMCYPGQAFQVPALPACRPLLRLQCNGSQVPEAVLRDCCQQLAHISEWCRCGALYSMLDSMYKEHGAQEGQAGTGAFPRCRREVVKLTAASITAVCRLPIVVDASGDGAYVCKDVAAYPDA
B2: Protein 0.26 AI (other)
chain: SGPWMCYPGYAFKVPALPGCRPVLKLQCNGSQVPEAVLRDCCQQLADISEWCRCGALYSMLDSMYKEHGVQEGQAGTGAFPSCRREVVKLTAASITAVCKLPIVIDASGDGAYVCKGVAAYPDA
B3: Protein 0.53 AI (other)
chain: SGPWMCYPGQAFQVPALPGCRPLLKLQCNGSQVPEAVLRDCCQQLADISEWPRCGALYSMLDSMYKEHGVSEGQAGTGAFPSCRREVVKLTAASITAVCRLPIVVDASGDGAYVCKDVAAYPDA
B4: Protein 0.28 AI (other)
chain: SGPWSWCNPATGYKVSALTGCRAMVKLQCVGSQVPEAVLRDCCQQLADINNEWCRCGDLSSMLRAVYQELGVREGKEVLPGCRKEVMKLTAASVPEVCKVPIPNPSGDRAGVCYGDWCAYPDV
B5: Protein (A) (other)
chain: SGPWMCYPGYAFKVPALPGCRPVLKLQCNGSQVPEAVLRDCCQQLADISEWCRCGALYSMLDSMYKEHGVQEGQAGTGAFPSCRREVVKLTAASITAVCKLPIVIDASGDGAYVCKGVAAYP

Molecular target: T1, human pancreatic α-amylase
Assay: cell-based or functional assay

In order of falling “Amylase inhibitory activity (U/mg)” value:
1. B2  26100 U/mg
2. B5  20500 U/mg
3. B1  20300 U/mg
4. B3  3940 U/mg
5. B4  840 U/mg
